# Reference: the Human Domainome abundance scans (Beltran et al. 2025)
# ± gives the uncertainty stated by the source.
# B1: KAT8 regulatory NSL complex subunit 2, residues 28 to 91; numbered along this chain, Q9H9L4 (parent)
# chain: CAFTHRPCSHPRLEGQEFCIKHILEDKNAPFKQCSYISTKNGKRCPNAAPKPEKKDGVSFCAEH
# Variants of: B1
# Experiment: abundance fitness (aPCA) (normalised: wild type 0, dead -1); higher = more abundant; growth selection in yeast, the domain comes from the species named
# Settings: Homo sapiens
row,Variant,abundance fitness
1,E17F,-0.19 ± 0.091
2,E17I,-0.036 ± 0.079
3,E17R,-0.216 ± 0.076
4,E17T,-0.051 ± 0.054
5,E17Q,-0.077 ± 0.073
6,E17M,-0.041 ± 0.075
7,E17W,-0.26 ± 0.082
8,E17G,-0.252 ± 0.073
9,E17A,-0.207 ± 0.07
10,E17K,-0.15 ± 0.068
11,E17D,-0.098 ± 0.11
12,E17C,-0.112 ± 0.12
13,E17L,-0.116 ± 0.046
14,E17S,-0.105 ± 0.056
15,E17N,-0.023 ± 0.15
16,E17V,-0.102 ± 0.052
17,E17P,-0.137 ± 0.077
18,E17Y,-0.106 ± 0.073
19,E17H,-0.129 ± 0.098
20,H22R,-0.812 ± 0.053
21,H22T,-0.877 ± 0.086
22,H22L,-1.34 ± 0.07
23,H22F,-1.81 ± 0.27
24,H22S,-0.729 ± 0.061

row,Variant,abundance fitness
1,H22I,-1.41 ± 0.15
2,H22G,-0.789 ± 0.053
3,H22K,-0.678 ± 0.087
4,H22C,-0.383 ± 0.13
5,H22W,-1.4 ± 0.2
6,H22D,-0.904 ± 0.098
7,H22Y,-1.07 ± 0.16
8,H22V,-1.36 ± 0.059
9,H22Q,-0.506 ± 0.12
10,H22N,-0.768 ± 0.12
11,H22M,-1.16 ± 0.1
12,H22A,-0.769 ± 0.053
13,E25I,-0.171 ± 0.089
14,E25V,-0.069 ± 0.053
15,E25C,-0.223 ± 0.14
16,E25A,-0.132 ± 0.059
17,E25F,-0.065 ± 0.083
18,E25R,-0.099 ± 0.053
19,E25N,-0.203 ± 0.1
20,E25L,-0.098 ± 0.044
21,E25D,-0.188 ± 0.16
22,E25S,-0.111 ± 0.053
23,E25W,-0.131 ± 0.097
24,E25P,-0.356 ± 0.073

row,Variant,abundance fitness
1,E25Y,-0.05 ± 0.09
2,E25H,0.053 ± 0.17
3,E25M,-0.092 ± 0.059
4,E25G,-0.063 ± 0.064
5,E25K,-0.23 ± 0.071
6,E25T,-0.127 ± 0.063
7,K21D,-0.149 ± 0.13
8,K21M,-0.159 ± 0.068
9,K21A,-0.057 ± 0.058
10,K21H,-0.005 ± 0.094
11,K21N,-0.125 ± 0.095
12,K21T,-0.157 ± 0.079
13,K21W,-0.173 ± 0.062
14,K21I,-0.251 ± 0.13
15,K21E,-0.085 ± 0.078
16,K21Y,-0.227 ± 0.16
17,K21L,-0.127 ± 0.048
18,K21G,-0.121 ± 0.056
19,K21C,-0.119 ± 0.1
20,K21V,-0.117 ± 0.051
21,K21F,0.048 ± 0.12
22,K21S,-0.125 ± 0.053
23,K21P,-0.904 ± 0.085
24,K21R,-0.058 ± 0.054

row,Variant,abundance fitness
1,K21Q,-0.117 ± 0.16
2,D26G,-0.197 ± 0.064
3,D26E,-0.157 ± 0.098
4,D26A,-0.084 ± 0.063
5,D26F,-0.245 ± 0.067
6,D26C,-0.097 ± 0.08
7,I23N,-0.463 ± 0.26
8,I23H,-0.246 ± 0.1
9,I23D,-0.35 ± 0.15
10,I23E,-0.351 ± 0.1
11,I23W,-0.286 ± 0.049
12,I23G,-0.295 ± 0.047
13,I23Q,-0.136 ± 0.085
14,I23P,-0.627 ± 0.062
15,I23L,-0.143 ± 0.042
16,I23C,-0.154 ± 0.069
17,I23A,-0.078 ± 0.068
18,I23M,-0.204 ± 0.065
19,I23V,-0.124 ± 0.048
20,I23S,-0.156 ± 0.06
21,I23Y,-0.296 ± 0.15
22,I23T,-0.178 ± 0.078
23,I23K,-0.165 ± 0.085
24,I23F,-0.404 ± 0.15

row,Variant,abundance fitness
1,I20F,-0.115 ± 0.074
2,I20C,-0.14 ± 0.064
3,I20A,-0.048 ± 0.063
4,I20M,-0.031 ± 0.066
5,I20P,-0.184 ± 0.072
6,I20E,-0.129 ± 0.07
7,I20R,-0.117 ± 0.045
8,I20H,-0.179 ± 0.15
9,I20Y,-0.151 ± 0.078
10,I20L,-0.057 ± 0.042
11,I20N,-0.328 ± 0.21
12,I20D,-0.208 ± 0.13
13,I20K,-0.195 ± 0.084
14,I20W,-0.201 ± 0.064
15,I20S,-0.136 ± 0.068
16,I20T,-0.2 ± 0.082
17,I20Q,-0.091 ± 0.08
18,I20G,-0.104 ± 0.048
19,Q16W,-0.226 ± 0.058
20,Q16Y,-0.187 ± 0.17
21,F18Y,-0.11 ± 0.084
22,F18T,-0.408 ± 0.053
23,F18L,-0.139 ± 0.052
24,F18E,-0.622 ± 0.092

row,Variant,abundance fitness
1,F18Q,-0.642 ± 0.12
2,F18D,-0.547 ± 0.097
3,F18C,-0.334 ± 0.062
4,F18W,-0.356 ± 0.073
5,F18S,-0.59 ± 0.055
6,F18V,-0.509 ± 0.062
7,F18R,-0.325 ± 0.041
8,F18N,-0.61 ± 0.1
9,F18H,-0.454 ± 0.13
10,F18K,-0.472 ± 0.093
11,F18M,-0.196 ± 0.063
12,F18A,-0.572 ± 0.064
13,F18I,-0.678 ± 0.065
14,F18G,-0.563 ± 0.047
15,C19Y,-1.38 ± 0.21
16,C19T,-0.908 ± 0.07
17,C19K,-0.572 ± 0.091
18,C19Q,-0.878 ± 0.08
19,C19F,-1.16 ± 0.37
20,C19G,-0.941 ± 0.056
21,C19A,-0.973 ± 0.061
22,C19R,-1.17 ± 0.063
23,C19E,-1 ± 0.08
24,C19M,-1.08 ± 0.091

row,Variant,abundance fitness
1,C19S,-0.851 ± 0.067
2,C19W,-1.28 ± 0.091
3,C19I,-1.19 ± 0.069
4,C19H,-1.63 ± 0.37
5,C19D,-0.994 ± 0.13
6,C19P,-0.809 ± 0.11
7,C19N,-1.27 ± 0.12
8,L24D,-0.13 ± 0.071
9,L24Y,-0.168 ± 0.085
10,L24S,-0.12 ± 0.055
11,L24M,-0.093 ± 0.067
12,L24Q,-0.147 ± 0.067
13,L24R,-0.164 ± 0.054
14,L24K,-0.261 ± 0.079
15,L24P,-0.134 ± 0.1
16,L24C,-0.129 ± 0.091
17,L24F,-0.195 ± 0.088
18,L24G,-0.098 ± 0.047
19,L24H,-0.227 ± 0.1
20,L24N,-0.348 ± 0.084
21,L24I,-0.2 ± 0.078
22,L24E,-0.234 ± 0.075
23,L24A,-0.144 ± 0.07
